Source: the supplement of paper PMC9942255
Values joined by “and” are separate entries in the source; they are usually repeats but may differ in a detail not shown here. Identical values can stand only once.

System: Bacillus subtilis DB104 (SP-AmyQ fusion secretion)
Experiment: AmyQ secretion efficiency, weighted average sort bin (1 = best secretion, 10 = worst) (bin number (weighted average, 1-10)); higher = lower secretion efficiency
Procedure, shortened: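 In this assay, the secretion score is defined as the average bin number weighted by read frequency, normalised to beads per bin, with low-abundance sequences not counted. B. subtilis DB104 cells expressing mature AmyQ behind designed signal peptides (amyE-integrated) were enclosed with fluorescein-starch in ~65 nL alginate beads at about 0.3 cells per bead. Beads grew about 13 h at room temperature, were stained with nile red, and occupied beads went into 10 equally populated green/red fluorescence ratio bins by large-particle flow cytometry, whose amplicons were Illumina-sequenced.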

Row | Sequence | AmyQ secretion efficiency
1 | MKKWIYVVLVLSIAGIGGFSVHKASS | 4.97
2 | MKKWIYVVLVLSIAGIGGFSVHMASS | 5.57
3 | MKKWIYVVLVLSIAGIGGFSVHNASS | 5.06
4 | MKKWIYVVLVLSIAGIGGFSVHRASS | 6.42
5 | MKKWIYVVLVLSIAGIGGFSVHSASS | 5.94
6 | MKKWIYVVLVLSIAGIGGFSVHTASS | 6.85
7 | MKKWIYVVLVLSIAGIGGFSVHWASS | 7.53
8 | MKKWIYVVLVLSIAGIGGFSVHYASS | 8.11
9 | MKKWIYVVLVLSIAGIGGFSYHAASS | 7.41
10 | MKKWIYVVLVLSIAGIGGISVSAFSVHAASS | 5.09
11 | MKKWIYVVLVLSIAGIGGKRKKKKVHAASS | 7.49
12 | MKKWIYVVLVLSIAGIGGKRRVHAASS | 7.83
13 | MKKWIYVVLVLSIAGIGGPSVHAASS | 2.74
14 | MKKWKQTQQSGIAAAISIFVYVSTGSEK | 7.55
15 | MKKWKYRRRVVLVLSIAGIGGFSVHAASS | 7.42
16 | MKKWLIIAVSLAIAIVLFDDTDGEAKAAGM | 2.55
17 | MKKWLIIAVSLAIAIVLFMAFKGEAKAAGM | 3.57
18 | MKKWLIIAVSLAIAIVLFMSVSFFAKAAGM | 5.66
19 | MKKWLIIAVSLAIAIVLFMYTAGEAKAAGM | 2.74
20 | MKKWLIIAVSLAIAIVLFMYTKGEAKAAED | 2.66
21 | MKKWLIIAVSLAIAIVLFMYTKGEAKAAGK | 2.87
22 | MKKWLIIAVSLAIAIVLFMYTKGEAKTAGM | 4.28
23 | MKKWLIIAVSLAIAIVLFMYTKGEAKVAGM | 5.3
24 | MKKWLIIAVSLAIAIVLFMYTKGEKKAAGM | 5.84
25 | MKKWLIIAVSLAIAIVLFMYTKGEPKAAGM | 5.65
26 | MKKWLIIAVSLAIAIVLFMYTKGEQKAAGM | 6.98

Row | Sequence | AmyQ secretion efficiency
27 | MKKWLIIAVSLAIAIVLFMYTKGETKAAGM | 3.24
28 | MKKWLIIAVSLAIAIVLFRRKKGRAKAAGM | 5.92
29 | MKKWLIIAVSLAIMYTKGEAKAAGM | 2.92
30 | MKKWLKKKRKKAIAIVLFMYTKGEAKAAGM | 7.14
31 | MKKWLKRKKSLAIAIVLFMYTKGEAKAAGM | 7.31
32 | MKKWLRRAVSLAIAIVLFMYTKGEAKAAGM | 2.72
33 | MKKWMAGLFLAAAVLLCLKRRRKRIQGASS | 6.89
34 | MKKWMAGLFLAAAVLLCLLVTSLMVPQQIQGASS | 4.31
35 | MKKWMAGLFLAAAVLLCLMIQGASS | 3.95
36 | MKKWMAGLFLAAAVLLCLMVPQQCQGASS | 2.09
37 | MKKWMAGLFLAAAVLLCLMVPQQGQGASS | 6.52
38 | MKKWMAGLFLAAAVLLCLMVPQQIQFASS | 5.75
39 | MKKWMAGLFLAAAVLLCLMVPQQIQGASS | 4.93 and 4.6 and 5.33
40 | MKKWMAGLFLAAAVLLCLMVPQQIQGDED | 8.35
41 | MKKWMAGLFLAAAVLLCLMVPQQIQGKKK | 4.71
42 | MKKWMAGLFLAAAVLLCLMVPQQIQPASS | 7.7
43 | MKKWMAGLFLAAAVLLCLMVPQQKQGASS | 3.94
44 | MKKWMAGLFLAAAVLLCLMVPQQLQGASS | 5.67
45 | MKKWMAGLFLAAAVLLCLMVPQQMQGASS | 5.46
46 | MKKWMAGLFLAAAVLLCLMVPQQQQGASS | 6.69
47 | MKKWMAGLFLAAAVLLCLMVPQQSQGASS | 5.65
48 | MKKWMAGLFLAAAVLLCLMVPQQTTGTSGSVIQGASS | 4.56
49 | MKKWMAGLFLAAAVLLCLMVPQQVQGASS | 3.15
50 | MKKWMAGLFLAAAVLLCLMVPQQYQGASS | 6.35
51 | MKKWMALTSGLFLAAAVLLCLMVPQQIQGASS | 4.17
52 | MKKWMASQKKSTQVLLCLMVPQQIQGASS | 7.24

Row | Sequence | AmyQ secretion efficiency
53 | MKKWMASTSFSMGLFLAAAVLLCLMVPQQIQGASS | 5.01
54 | MKKWMATGSLAAAVLLCLMVPQQIQGASS | 2.83
55 | MKKWMILILAGIALFVFISPLKSHKT | 7.86
56 | MKKWMITIAMLILAGIALFVFIDPLKSHKT | 6.61
57 | MKKWMITIAMLILAGIALFVFIFSPLKSHKT | 7.63
58 | MKKWMITIAMLILAGIALFVFIRKKRRLKSHKT | 6.07
59 | MKKWMITIAMLILAGIALFVFIRKLKSHKT | 7.72
60 | MKKWMITIAMLILAGIALFVFISPFKSHKT | 6.23
61 | MKKWMITIAMLILAGIALFVFISPIKSHKT | 6.77
62 | MKKWMITIAMLILAGIALFVFISPLKGHKT | 6.29
63 | MKKWMITIAMLILAGIALFVFISPLKRHKT | 7.32
64 | MKKWMITIAMLILAGIALFVFISPLKSHKT | 6.27 and 6.6 and 6.11
65 | MKKWMITIAMLILAGIALFVFISPLKWHKT | 5.74
66 | MKKWMITIAMLILAGIALFVFISPNKSHKT | 5.8
67 | MKKWMITIAMLILAGIALFVFISPPKSHKT | 5.84
68 | MKKWMITIAMLILAGIALFVFISPPPFFTAVPSTVLKSHKT | 6.23
69 | MKKWMITIAMLILAGIALFVFISPRKSHKT | 4.44
70 | MKKWMITIAMLILAGIALFVFISPSKSHKT | 6.65
71 | MKKWMITIAMLILAGIALFVFISPTKSHKT | 7.06
72 | MKKWMITIAMLILAGIALFVFISPTSSSTTFLKSHKT | 7.57
73 | MKKWMITIAMLILAGIALFVFISPVKSHKT | 6.53
74 | MKKWMITIAMLILAGIALFVFISPWKSHKT | 6.16
75 | MKKWMITIAMLILAGIALFVFISPYKSHKT | 6.74
76 | MKKWMITIAMLKKAGIALFVFISPLKSHKT | 6.51
77 | MKKWMITIAMLKKKRRRLFVFISPLKSHKT | 7.47
78 | MKKWMITIAMLKRRRIALFVFISPLKSHKT | 7.36

Row | Sequence | AmyQ secretion efficiency
79 | MKKWMITIAMRTLAGIALFVFISPLKSHKT | 7.06
80 | MKKWMITIAMSTYTYYTLFVFISPLKSHKT | 5.78
81 | MKKWMITIAMSYTSTKRYFVFISPLKSHKT | 7.55
82 | MKKWMITIAMTMLILAGIALFVFISPLKSHKT | 1.1
83 | MKKWRGGSQSGAIAIVLFMYTKGEAKAAGM | 6.49
84 | MKKWRKRLIIAVSLAIAIVLFMYTKGEAKAAGM | 3.1
85 | MKKWRYTKRQRKLILAGIALFVFISPLKSHKT | 6.51
86 | MKKWSTTIAMLILAGIALFVFISPLKSHKT | 5.92
87 | MKKWTIIAVSLAIAIVLFMYTKGEAKAAGM | 2.14
88 | MKKWTNMSLLIIAVSLAIAIVLFMYTKGEAKAAGM | 2.33
89 | MKLAKRGKSYYPYTSLAITAKAKEL | 8.51
90 | MKLAKRINMVSALTPSTTLAITAKAKEL | 7.42
91 | MKLAKRNFMISMVSALTPSTTLAITAKAKEL | 7.41
92 | MKLAKRTSALTPSTTLAITAKAKEL | 6.93
93 | MKLAKRVKRRKRKTTLAITAKAKEL | 7.36
94 | MKLAKRVRKLTPSTTLAITAKAKEL | 8.89
95 | MKLAKRVRRKRPSTTLAITAKAKEL | 6.87
96 | MKLAKRVSALTPSTTLAIATAKAKEL | 7.06
97 | MKLAKRVSALTPSTTLAIATVLATAKAKEL | 6.28
98 | MKLAKRVSALTPSTTLAIEAKAKEL | 7.23
99 | MKLAKRVSALTPSTTLAIEEEEAKAKEL | 7.01
100 | MKLAKRVSALTPSTTLAIISTGSAKAKEL | 7.54
101 | MKLAKRVSALTPSTTLAIKKKKRAKAKEL | 7.08
102 | MKLAKRVSALTPSTTLAITAKAAED | 5.72
103 | MKLAKRVSALTPSTTLAITAKAAPD | 7.89
104 | MKLAKRVSALTPSTTLAITAKAAPK | 7.94

Row | Sequence | AmyQ secretion efficiency
105 | MKLAKRVSALTPSTTLAITAKAAPL | 8.19
106 | MKLAKRVSALTPSTTLAITAKAARK | 7.54
107 | MKLAKRVSALTPSTTLAITAKADEE | 6.16
108 | MKLAKRVSALTPSTTLAITAKCKEL | 7.76
109 | MKLAKRVSALTPSTTLAITAKDKEL | 6.63
110 | MKLAKRVSALTPSTTLAITAKEKEL | 7.18
111 | MKLAKRVSALTPSTTLAITAKFKEL | 7.68
112 | MKLAKRVSALTPSTTLAITAKGKEL | 7.3
113 | MKLAKRVSALTPSTTLAITAKHKEL | 6.77
114 | MKLAKRVSALTPSTTLAITAKIKEL | 7.25
115 | MKLAKRVSALTPSTTLAITAKKKEL | 7.78
116 | MKLAKRVSALTPSTTLAITAKLKEL | 6.8
117 | MKLAKRVSALTPSTTLAITAKMKEL | 6.79
118 | MKLAKRVSALTPSTTLAITAKNKEL | 8.25
119 | MKLAKRVSALTPSTTLAITAKPKEL | 6.44
120 | MKLAKRVSALTPSTTLAITAKRKEL | 8.52
121 | MKLAKRVSALTPSTTLAITAKSKEL | 7.27
122 | MKLAKRVSALTPSTTLAITAKTKEL | 7.68
123 | MKLAKRVSALTPSTTLAITAKVKEL | 6.33
124 | MKLAKRVSALTPSTTLAITAKYKEL | 5.07
125 | MKLAKRVSALTPSTTLAITCKAKEL | 7.57
126 | MKLAKRVSALTPSTTLAITDKAKEL | 7.38
127 | MKLAKRVSALTPSTTLAITEKAKEL | 7.31
128 | MKLAKRVSALTPSTTLAITFKAKEL | 6.49
129 | MKLAKRVSALTPSTTLAITGFVGSTTFTAPTAKAKEL | 6.19
130 | MKLAKRVSALTPSTTLAITGKAKEL | 7.09
